According to the supplement of paper PMC10126150:
± gives the standard deviation of the averaged measurements.

Test system: ATP
Experiment: switch fluorescence ratio, 500 uM ATP over buffer (Cy3 cluster intensity, sum of 5 cycles each) (fold (ratio)); higher = stronger signal-on switching upon ATP binding; sequences stand for … in TCGTCGGCAGCGTCAGATGTGTATAAGAGACAGTTTTTTTTTTTTTTTTTTTTTTTTT…TC
Conditions: aptamer strand: ATP DNA aptamer (quencher-CACCTGGGGGAGTATTGCGGAGGAAGG + anchor), 100 nM annealed; ATP concentration: 500 uM
Procedure, shortened: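 Per cluster, summed Cy3 intensity from the target cycles was divided by that from the buffer cycles to give the fluorescence ratio, then averaged per switch-domain sequence. Clusters outside 100-1000 RFU were excluded. The Cy3-labelled switching-strand clusters, on a modified Illumina MiSeq flow-cell, were annealed to 100 nM quencher-labelled ATP aptamer and imaged in selection buffer, then after 15 min with 500 uM ATP at 22 °C, for five cycles with NaOH stripping and re-annealing between them.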
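Note: ATP exposure 15 min at 22 °C before imaging.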

Sequence | switch fluorescence ratio
TTCTGGTGTG | 0.9703 ± 0.0072
TTCTGTATGC | 1.02 ± 0.045
TTCTGTATGT | 0.97 ± 0.029
TTCTGTGGTG | 1.01 ± 0.028
TTCTGTTTGG | 1.01 ± 0.017
TTCTTAGAGT | 1.02 ± 0.016
TTCTTCATAG | 1.02 ± 0.015
TTCTTCTGGC | 1.017 ± 0.0073
TTCTTCTGGG | 0.997 ± 0.017
TTCTTGAAG | 0.966 ± 0.02
TTCTTGAGGT | 0.9669 ± 0.0016
TTCTTGGGGT | 0.975 ± 0.056
TTCTTGTAAT | 1.014 ± 0.003
TTCTTTGTTG | 0.984 ± 0.046
TTCTTTTAAT | 0.98998 ± 0.0005
TTCTTTTATG | 1.02 ± 0.021
TTGAAAAAGC | 0.975 ± 0.015
TTGAAACATT | 1.01 ± 0.024
TTGAAAGGGC | 1.02 ± 0.019
TTGAAAGGGT | 0.981 ± 0.087
TTGAAATGTT | 0.9923 ± 0.0033
TTGAACGAGC | 0.99 ± 0.04
TTGAACGGTG | 1.03 ± 0.047

Sequence | switch fluorescence ratio
TTGAAGAAAG | 0.976 ± 0.021
TTGAAGAGGT | 0.976 ± 0.049
TTGAAGATAA | 1.02 ± 0.033
TTGAAGCGGA | 1.03 ± 0.03
TTGAAGCGGC | 1.59 ± 0.76
TTGAAGCTGG | 0.9746 ± 0.0088
TTGAAGGGGA | 0.9736 ± 0.0039
TTGAAGGGGC | 0.997 ± 0.055
TTGAAGTGCG | 1.02 ± 0.049
TTGAAGTGTG | 1.02 ± 0.015
TTGAAGTTAC | 1.111 ± 0.0072
TTGAAGTTAG | 0.99 ± 0.02
TTGAATCGGG | 0.944 ± 0.035
TTGAATGAGG | 0.95006 ± 0.00095
TTGACAGGGT | 1.03 ± 0.07
TTGACCAAAA | 1.03 ± 0.055
TTGACCGATT | 0.978 ± 0.041
TTGACGAAGG | 0.95 ± 0.026
TTGACGACAC | 1.67 ± 0.45
TTGACGAGTT | 1.06 ± 0.081
TTGACGATGT | 1.17 ± 0.19
TTGACGCAGG | 1.06 ± 0.012
TTGACGCTAA | 2.37 ± 0.65

Sequence | switch fluorescence ratio
TTGACGGAGG | 0.983 ± 0.032
TTGACGGGCT | 1.05 ± 0.043
TTGACGGTGG | 1.05 ± 0.086
TTGACGGTGT | 1.028 ± 0.0021
TTGACGTGTC | 1 ± 0.043
TTGACTGTTC | 1.04 ± 0.043
TTGACTTACT | 1.18 ± 0.085
TTGACTTATA | 1.01 ± 0.022
TTGAGAAAAG | 1.06 ± 0.099
TTGAGACGGT | 1 ± 0.017
TTGAGAGTTG | 0.984 ± 0.046
TTGAGCAAGT | 1.14 ± 0.075
TTGAGCATGG | 1.06 ± 0.051
TTGAGCTGTG | 1.02 ± 0.019
TTGAGGAAGT | 1.06 ± 0.058
TTGAGGAATA | 0.9922 ± 0.008
TTGAGGCGAT | 1.23 ± 0.22
TTGAGGGAGC | 1.09 ± 0.038
TTGAGGGGA | 0.982 ± 0.021
TTGAGGGGAA | 0.999 ± 0.025
TTGAGGGTAA | 0.99263 ± 0.00084
TTGAGGGTGC | 1.01 ± 0.022
TTGAGGGTGG | 1.0305 ± 0.0005

Sequence | switch fluorescence ratio
TTGAGGTACT | 0.971 ± 0.052
TTGAGGTAGT | 0.984 ± 0.014
TTGAGGTATG | 0.9838 ± 0.0046
TTGAGGTGGC | 0.982 ± 0.018
TTGAGGTTTG | 1.03 ± 0.019
TTGAGTAGGT | 0.987 ± 0.031
TTGAGTGCTT | 0.987 ± 0.028
TTGAGTGTGG | 0.998 ± 0.03
TTGAGTGTTG | 1.01 ± 0.049
TTGAGTTCTC | 0.978 ± 0.016
TTGAGTTTGG | 0.985 ± 0.022
TTGATAGCCT | 1.06 ± 0.059
TTGATAGTAA | 1.04 ± 0.09
TTGATATGAG | 0.989 ± 0.048
TTGATCAGTG | 1.01 ± 0.015
TTGATCCGGG | 1.1 ± 0.055
TTGATCGGGG | 1.01 ± 0.028
TTGATCTAAT | 1 ± 0.011
TTGATCTTGA | 0.955 ± 0.085
TTGATGAGTG | 1.01 ± 0.033
TTGATGGCTA | 0.983 ± 0.021
TTGATGGGAC | 1.12 ± 0.021
TTGATGTGGT | 0.997 ± 0.084

Sequence | switch fluorescence ratio
TTGATTATCC | 0.99 ± 0.019
TTGATTATTG | 0.999 ± 0.032
TTGATTTTGC | 0.993 ± 0.013
TTGATTTTGG | 0.988 ± 0.026
TTGCAAGTCA | 1.05 ± 0.018
TTGCAAGTTG | 1.01 ± 0.021
TTGCACCCGT | 1.04 ± 0.053
TTGCACGTAA | 1.66 ± 0.42
TTGCAGATGG | 0.999 ± 0.057
TTGCAGGTGG | 1.03 ± 0.011
TTGCAGTTGT | 0.993 ± 0.041
TTGCATGCCG | 0.972 ± 0.036
TTGCATTTTT | 1.01 ± 0.034
TTGCCGCTGT | 1.18 ± 0.22
TTGCCGGGGG | 1.24 ± 0.38
TTGCCGGGGT | 1.1 ± 0.16
TTGCCGGTTT | 1.05 ± 0.021
TTGCCTAACT | 1.04 ± 0.028
TTGCCTAATG | 0.972 ± 0.035
TTGCCTTCTT | 1.03 ± 0.033
TTGCCTTTTT | 0.998 ± 0.028
TTGCGAATGT | 0.997 ± 0.038
TTGCGACCTG | 1.05 ± 0.04

Sequence | switch fluorescence ratio
TTGCGAGAGA | 0.993 ± 0.035
TTGCGAGGTC | 0.985 ± 0.037
TTGCGGGATG | 1.04 ± 0.051
TTGCGGGGTA | 0.978 ± 0.013
TTGCGGGGTG | 1.01 ± 0.045
TTGCGGGTTT | 1.29 ± 0.38
TTGCGGTGTG | 1 ± 0.024
TTGCGTAAAA | 0.961 ± 0.047
TTGCGTAAGG | 1.06 ± 0.056
TTGCGTACGG | 1.01 ± 0.053
TTGCGTGATG | 1.02 ± 0.029
TTGCGTGGGG | 1.005 ± 0.0065
TTGCTAATGC | 1.18 ± 0.23
TTGCTACGGA | 1.04 ± 0.013
TTGCTAGTTA | 0.971 ± 0.037
TTGCTATGAA | 1.01 ± 0.054
TTGCTATTCG | 0.992 ± 0.05
TTGCTATTTT | 1 ± 0.028
TTGCTCTCTG | 1.03 ± 0.031
TTGCTGCAAA | 1.1 ± 0.12
TTGCTGGCGC | 1.036 ± 0.0055
TTGCTGGGG | 0.972 ± 0.037
TTGCTTCGTT | 1.02 ± 0.029

Sequence | switch fluorescence ratio
TTGCTTCTAG | 0.979 ± 0.043
TTGCTTGTAT | 0.9992 ± 0.0098
TTGCTTTATT | 0.987 ± 0.016
TTGGAAAAAT | 1.05 ± 0.071
TTGGAAAAGT | 0.988 ± 0.036
TTGGAAAATA | 1.009 ± 0.0042
TTGGAAAGTG | 1.05 ± 0.13
TTGGAAAGTT | 1.01 ± 0.028
TTGGAAATGG | 1.03 ± 0.045
TTGGAACGAT | 1.02 ± 0.07
TTGGAAGGGG | 1.13 ± 0.24
TTGGAAGTGC | 1 ± 0.056
TTGGAATGGA | 0.989 ± 0.029
TTGGAATGT | 1.029 ± 0.0083
TTGGAATTCC | 0.989 ± 0.05
TTGGACGGAA | 1.224 ± 0.0051
TTGGACTAGG | 1.02 ± 0.024
TTGGAGAGTG | 0.963 ± 0.021
TTGGAGCATG | 1.28 ± 0.049
